Laboratory results published in patent publication US20050282743A1, “Molecular interactions in cells” (Arbor Vita Corporation, priority 2001, published 2005).

T1: GST-DLG1 PDZ domain 2 (Homo sapiens), Q12959
T1 chain: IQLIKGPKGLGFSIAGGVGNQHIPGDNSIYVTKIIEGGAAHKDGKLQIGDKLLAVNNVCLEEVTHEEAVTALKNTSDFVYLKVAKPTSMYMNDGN

T2: GST-EZRIN Binding Protein 50 PDZ domain 1 (Homo sapiens (Human)), O14745
T2 chain: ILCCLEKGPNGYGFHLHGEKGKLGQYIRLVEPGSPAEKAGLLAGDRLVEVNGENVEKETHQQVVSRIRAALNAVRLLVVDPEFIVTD

T3: GST-KIAA0147 PDZ domain 3 (Homo sapiens (Human)), Q14160
T3 chain: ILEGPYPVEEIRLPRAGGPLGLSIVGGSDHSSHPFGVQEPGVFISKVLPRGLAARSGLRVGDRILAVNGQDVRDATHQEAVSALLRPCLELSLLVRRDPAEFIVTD

T4: GST-KIAA0147 PDZ domain 4 (Homo sapiens (Human)), Q14160
T4 chain: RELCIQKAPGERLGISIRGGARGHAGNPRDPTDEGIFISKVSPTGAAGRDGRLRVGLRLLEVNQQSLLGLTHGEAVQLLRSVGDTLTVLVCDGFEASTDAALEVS

T5: GST-MUPP1 PDZ domain 13 (Homo sapiens (Human)), O75970
T5 chain: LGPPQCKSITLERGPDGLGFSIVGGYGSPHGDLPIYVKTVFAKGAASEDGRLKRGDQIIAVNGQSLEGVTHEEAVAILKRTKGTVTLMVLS

T6: GST-MUPP1 PDZ domain 5 (Homo sapiens (Human)), O75970
T6 chain: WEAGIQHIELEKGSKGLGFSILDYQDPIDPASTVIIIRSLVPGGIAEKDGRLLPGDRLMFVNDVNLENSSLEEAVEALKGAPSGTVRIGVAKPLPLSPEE

T7: GST-NeDLG PDZ domain 3 (Mus musculus (Mouse)), P70175
T7 chain: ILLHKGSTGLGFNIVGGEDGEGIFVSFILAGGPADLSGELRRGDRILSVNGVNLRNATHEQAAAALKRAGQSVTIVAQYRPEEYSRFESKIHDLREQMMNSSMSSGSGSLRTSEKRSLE

T8: GST-Shank 1 PDZ domain 1 (Homo sapiens (Human)), Q9UPX8
T8 chain: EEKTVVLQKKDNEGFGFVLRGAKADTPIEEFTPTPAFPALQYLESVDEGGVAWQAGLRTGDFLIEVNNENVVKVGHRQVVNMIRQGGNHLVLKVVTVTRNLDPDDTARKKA

T9: GST-Syntrophin gamma 2 PDZ domain 1 (Homo sapiens (Human)), Q9NY99
T9 chain: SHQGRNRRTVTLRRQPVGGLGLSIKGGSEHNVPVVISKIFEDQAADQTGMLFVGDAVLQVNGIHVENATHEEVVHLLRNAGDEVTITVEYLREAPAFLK

T10: GST-ZO-1 PDZ domain 1 (Rattus norvegicus (Rat)), A0A0G2
T10 chain: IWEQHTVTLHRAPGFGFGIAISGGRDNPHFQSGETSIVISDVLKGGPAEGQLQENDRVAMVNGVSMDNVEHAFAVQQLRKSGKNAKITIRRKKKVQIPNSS

T11: GST-ZO-2 PDZ domain 1 (Homo sapiens (Human)), Q9UDY2
T11 chain: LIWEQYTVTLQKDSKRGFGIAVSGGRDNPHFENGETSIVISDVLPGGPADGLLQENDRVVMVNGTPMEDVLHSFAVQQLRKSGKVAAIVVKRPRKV

T12: GST-ZO-3 PDZ domain 1
T12 chain: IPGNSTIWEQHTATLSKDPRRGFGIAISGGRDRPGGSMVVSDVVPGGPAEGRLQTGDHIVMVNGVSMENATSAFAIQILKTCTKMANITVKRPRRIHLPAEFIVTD

T13: GST-novel PDZ gene PDZ domain 1 (Homo sapiens (Human)), Q9H5P4
T13 chain: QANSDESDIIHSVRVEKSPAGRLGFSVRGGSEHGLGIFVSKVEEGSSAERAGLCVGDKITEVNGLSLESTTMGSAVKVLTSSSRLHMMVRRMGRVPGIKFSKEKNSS

B1: a-actinin 2 (peptide)
peptide: VPGALDYAAFSSALYGESDL
modifications: not checked
B2: LPAP (peptide)
peptide: AWDDSARAAGGQGLHVTAL
modifications: not checked
B3: ephrin B2 (peptide)
peptide: ILNSIQVMRAQMNQIQSVEV
modifications: not checked
B4: CSPG4 (chondroitin sulfae proteoglycan 4, melanoma-associated) (peptide)
peptide: ELLQFCRTPNPALKNGQYWV
modifications: not checked
B5: alpha-2A Adrenergic receptor (peptide)
peptide: HDFRRAFKKILARGDRKRIV
modifications: not checked
B6: MINT-1 (peptide)
peptide: KTMPAAMYRLLTAQEQPVYI
modifications: not checked

Target: T1, GST-DLG1 PDZ domain 2 (Homo sapiens), …
Assay: G' assay
Note: key of the grades not given here.

Classification [A450 class] | Binder
1 | B1

Target: T2, GST-EZRIN Binding Protein 50 PDZ domain …
Assay: G' assay

Classification [A450 class] | Binder
5 | B2
1 | B3

The binders below were run against GST-KIAA0147 PDZ domain 1 (Homo sapiens (Human)), Q14160 (assay: G' assay).
Chain of GST-KIAA0147 PDZ domain 1 (Homo sapiens (Human)), Q14160 (Q14160 other isoform, or with tags, fused parts or gaps): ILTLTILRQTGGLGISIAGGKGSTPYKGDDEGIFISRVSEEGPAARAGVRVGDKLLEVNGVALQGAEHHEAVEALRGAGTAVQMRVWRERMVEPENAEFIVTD

Classification [A450 class] | Binder
3 | B2
2 | B1

Target: T3, GST-KIAA0147 PDZ domain 3 (Homo sapiens …)
Assay: G' assay

Classification [A450 class] | Binder
3 | B1

Target: T4, GST-KIAA0147 PDZ domain 4 (Homo sapiens …)
Assay: G' assay

Classification [A450 class] | Binder
2 | B3

These binders were tested against GST-KIAA1634 PDZ domain 1 (Homo sapiens (Human)), Q5TCQ9 (assay: G' assay).
Chain of GST-KIAA1634 PDZ domain 1 (Homo sapiens (Human)), Q5TCQ9 (Q5TCQ9 401-502): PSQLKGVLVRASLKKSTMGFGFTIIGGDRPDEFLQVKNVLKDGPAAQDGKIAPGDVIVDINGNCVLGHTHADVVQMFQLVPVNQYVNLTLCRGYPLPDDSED

Classification [A450 class] | Binder
5 | B4

Target: T5, GST-MUPP1 PDZ domain 13 (Homo sapiens …)
Assay: G' assay

Classification [A450 class] | Binder
1 | B5

Target: T6, GST-MUPP1 PDZ domain 5 (Homo sapiens …)
Assay: G' assay

Classification [A450 class] | Binder
2 | B6
5 | B4

Target: T7, GST-NeDLG PDZ domain 3 (Mus musculus …)
Assay: G' assay

Classification [A450 class] | Binder
1 | B3

Target: T8, GST-Shank 1 PDZ domain 1 (Homo sapiens …)
Assay: G' assay

Classification [A450 class] | Binder
3 | B2
1 | B1

Target: T9, GST-Syntrophin gamma 2 PDZ domain 1 …
Assay: G' assay

Classification [A450 class] | Binder
1 | B1

Target: T10, GST-ZO-1 PDZ domain 1 (Rattus …)
Assay: G' assay

Classification [A450 class] | Binder
1 | B6
5 | B4
3 | B3

Target: T11, GST-ZO-2 PDZ domain 1 (Homo sapiens …)
Assay: G' assay

Classification [A450 class] | Binder
5 | B4
1 | B3

Target: T12, GST-ZO-3 PDZ domain 1
Assay: G' assay

Classification [A450 class] | Binder
2 | B6
2 | B4
1 | B3

Target: T13, GST-novel PDZ gene PDZ domain 1 (Homo …)
Assay: G' assay

Classification [A450 class] | Binder
2 | B1
2 | B3
